Assay results reported in article PMC3918160, “Biochemical studies of the multicopper oxidase (small laccase) from Streptomyces coelicolor using bioactive phytochemicals and site-directed mutagenesis” (Microbial Biotechnology, 2013).

Assays:
[1] = substrate: COc1cccc(OC)c1O; assay: initial rates, absorbance, Michaelis-Menten fit; assay type: biochemical, Streptomyces coelicolor; settings: 60°C, optimal pH for the substrate
[2] = substrate: O=c1c(O)c(-c2ccc(O)c(O)c2)oc2cc(O)cc(O)c12; assay: initial rates, absorbance, Michaelis-Menten fit; assay type: biochemical, Streptomyces coelicolor; settings: 60°C, optimal pH for the substrate, 5% (v/v) DMSO
[3] = substrate: O=c1c(O)c(-c2ccc(O)cc2O)oc2cc(O)cc(O)c12; assay: initial rates, absorbance, Michaelis-Menten fit; assay type: biochemical, Streptomyces coelicolor; settings: 60°C, optimal pH for the substrate
[4] = substrate: CCn1c(=NN=c2sc3cc(S(=O)(=O)O)ccc3n2CC)sc2cc(S(=O)(=O)O)ccc21; assay: initial rates, absorbance, Michaelis-Menten fit; assay type: biochemical, Streptomyces coelicolor; settings: 60°C, optimal pH for the substrate
purified protein = substrate: O=c1c(O)c(-c2cc(O)c(O)c(O)c2)oc2cc(O)cc(O)c12; assay: purified protein; settings: 60°C, optimal pH for the substrate, 5% (v/v) DMSO

| Protein | Km ([1]; universal buffer) | Km [2] | Km ([3]; 5% (v/v) DMSO) | Km ([4]; universal buffer) | Km (purified protein) | kcat (purified protein) | Km [1] | kcat [1] | Km ([3]; DMSO) | kcat ([3]; DMSO) | Km [4] | kcat [4] |
| --- | --- | --- | --- | --- | --- | --- | --- | --- | --- | --- | --- | --- |
| small laccase (SLAC), SCO6712 (Streptomyces coelicolor A3(2)) (protein) AKGITARTAPAGGEVRHLKMYAEKLADGQMGYGFEKGKASVPGPLIEVNEGDTLHIEFTNTMDVRASLHVHGLDYEISSDGTAMNKSDVEPGGTRTYTWRTHKPGRRDDGTWRPGSAGYWHYHDHVVGTEHGTGGIRNGLYGPVIVRRKGDVLPDATHTIVFNDMTINNRKPHTGPDFEATVGDRVEIVMITHGEYYHTFHMHGHRWADNRTGILTGPDDPSRVIDNKITGPADSFGFQIIAGEGVGAGAWMYHCHVQSHSDMGMVGLFLVKKPDGTIPGYEPHEHGGATAKSGESGEPTGGAAAHEHEH | 1100 ± 200 µM | 1200 ± 400 µM | 1500 ± 200 µM | 800 ± 100 µM | 900 ± 300 µM | 8.1 ± 0.8 s⁻¹ |  |  |  |  |  |  |
| small laccase (SLAC), SCO6712 (Streptomyces coelicolor A3(2); S292A) (protein) AKGITARTAPAGGEVRHLKMYAEKLADGQMGYGFEKGKASVPGPLIEVNEGDTLHIEFTNTMDVRASLHVHGLDYEISSDGTAMNKSDVEPGGTRTYTWRTHKPGRRDDGTWRPGSAGYWHYHDHVVGTEHGTGGIRNGLYGPVIVRRKGDVLPDATHTIVFNDMTINNRKPHTGPDFEATVGDRVEIVMITHGEYYHTFHMHGHRWADNRTGILTGPDDPSRVIDNKITGPADSFGFQIIAGEGVGAGAWMYHCHVQAHSDMGMVGLFLVKKPDGTIPGYEPHEHGGATAKSGESGEPTGGAAAHEHEH |  |  |  |  |  |  | 120 ± 20 µM | 0.93 ± 0.02 s⁻¹ | 1600 ± 400 µM | 4.0 ± 0.4 s⁻¹ | 2400 ± 200 µM | 11.1 ± 0.3 s⁻¹ |
